Laboratory results: the RNAGym collection of RNA variant scans (doi:10.1073/pnas.2313332121)
This sample holds only a part of the variants without activity.

B1: TPR 5TU (parent)
chain: GGAUCUUCUCGAUCUAACAAAAAAGACAAAUCUGCCACAAAGCUUGAGAGCAUCUUCGGAUGCAGAGGCGGCAGCCUUCGGUGGCGCGAUAGCGCCAACGUUCUCAACUAUGACACGCAAAACGCGUGCUCCGUUGAAUGGAGUUUAUCAUG

Variants of: B1
Test: polymerase ribozyme fitness, log enrichment relative to wild type (log ratio); higher = more active; in vitro selection for triplet polymerase activity
Method in brief: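 Each subunit of a heterodimeric triplet polymerase ribozyme was mutagenized into a library by PCR, transcribed, and subjected to one round of in vitro selection, run in triplicate. Libraries were annealed with a biotinylated primer, the partner subunit and triplets, incubated frozen at −7 °C, and extended constructs were gel-excised, captured on streptavidin beads and recovered by RT-PCR. Input and output libraries were sequenced on Illumina, keeping genotypes with ≥10 input reads and ≥1 read per output. Fitness is log base 2 of genotype enrichment divided by wild-type enrichment, from inverse-variance-weighted replicate averages.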

Variant	polymerase ribozyme fitness (log ratio)
U13A U53A C63G A97U U102G A142C	≤ -4.2
U13C G50U G59A U82C A121U G136A	-1.14
U13C A66U G88A A91U	≤ -4.2
U13A A98U U148G	≤ -4.2
A12U C35G C36G U55G G86U	≤ -4.2
U13G A22G A24U A28G C76U U78A C79G G81A U102G C114A	≤ -4.2
A12U C36G G92C A147G	≤ -4.2
A12U A47C A52C U56G A64C G86A A89G C99U	≤ -4.2
A12G U78G A89G C95U U109C U145C A150G	≤ -4.2
U13C G94C U104G	-2.15
A12U A23U A40U C87A G88C G117U	≤ -4.2
U13C C54G C95G	-3.76
A12U G71A C75U G84A C85U G117A	≤ -4.2
A12G U53A U56A U82G A91U G117C A142G	-4.16
U13A A41G C85G A147G	-2.67
A12U C14U A17U G59A C93U A122U G143C	≤ -4.2
A12U C51G G88C C108G G117C	≤ -4.2
U13C G58A	0.452
A12U U56C G59A G88C	≤ -4.2
A12G U44A G46A A66C G86A C93A A97U A138G A142G	≤ -4.2
A12U C87U	-1.1

Variant	polymerase ribozyme fitness (log ratio)
A12U A39G C95U	-2.3
A12G G48A C54U C85G G117U	-2.26
A12U C93U A97U C103U C105U G133U	≤ -4.2
U13C G88A C99G	-4.01
A12U U33A C35G C57A U77C U101C U134A	≤ -4.2
A12G G70C A113C U144C A147C	≤ -4.2
A12U A147U	0.945
A12G U15G C69A C75U A106G A120G	-2.52
A12U C79U C93G C132G	≤ -4.2
U13A A21C U56A A60G G92U U102A C114U C123U	-3.84
A12U G48U U53A C54G G71A C75G G86A C95U A119C	≤ -4.2
U13G A28U G71A G88C	≤ -4.2
U13G	-0.261
U13A	-0.225
U13C	-0.269
U13G A24U A28U A29U C54U C69A C76G G94U A97C U135C	≤ -4.2
U13A C54G G68A C75G C76G U90G C95G A119U	≤ -4.2
A12U U53A G141U	-1.08
U13C A22G A49U G68C C79G	≤ -4.2
U13C A49C C93A	≤ -4.2
A12U U111C	-4

Variant	polymerase ribozyme fitness (log ratio)
A12U C43U C63U U90C C105G G140A	≤ -4.2
U13A A39U U45A G59C C72U G94C U101A A142C	≤ -4.2
A12U G34C G62C A73U C96U A107G C116G A147G	≤ -4.2
A12U C18G C32A G84A C105U U127G	≤ -4.2
U13A G74C C93U G124A	≤ -4.2
A12U C57G U78C C93U U127A	≤ -4.2
U13A U15C A28G U33G C79A C118U U148G	≤ -4.2
U13A A17G A49C A107G	≤ -4.2
A12U A47G C76A C85G	-3.78
U13A A23U G59A C87U	≤ -4.2
A12U C87U A120U	-0.814
U13C U61C C85U A89C U144A	≤ -4.2
A12U C96U	-0.566
A12U U15A A21U U55A C76U C79A A121U	≤ -4.2
A12G U33C A73G U130G	-3.56
U13C G25C C76A A97U C103G C105G U139C	≤ -4.2
A12U G84C C93U G140A	≤ -4.2
A12U G59U G94C C114U	-2.68
A12U A24U C43A G46A U53A U55A C57U A60G G80U C93G	≤ -4.2
U13C U56A A60G C95U C105G U109G C132A U145G	≤ -4.2
A12G G88C	-3.71

Variant	polymerase ribozyme fitness (log ratio)
U13A A20U C35A G50A G83C C118G A119U C132U	≤ -4.2
A12G U13C C38U G58A A73U	-1.35
A12U A17C A22C A142C	-2.44
U13A A22U A89G C95A	-1.67
U13C C76A U82G C85U C118G	-2.92
U13C A20C A21C G58A U82A U101A	-1.36
U13G A24U A37G U134C	-4.14
U13C A39C C72A C76G C99G G140U A147C	≤ -4.2
U13C A26U A52C U55A G88A A89C C99U U135G A142U	≤ -4.2
U13G A21U A22C U82G G92U A98C C116U G136A	-4.02
A12G U13G A121G	-2.27
A12U U15G A39U G86U U102G C116U	≤ -4.2
U13C A16U G84A U109G	-1.88
A12U C118U A119C G136A G143C	-3.19
A12G G59A A73G A91G	-2.71
U13C A20C G83U C85A C93A	≤ -4.2
A12U U55A G141A	-1.32
A12U A24C G46A A52G G141U A147G	≤ -4.2
U13A U45A G84A	≤ -4.2
A12U U109G	-2.25
